This passage reports fold increase of the association in Cbl-deficient against wild-type DT40 cells results from PMC2195830.

This assay addresses phospholipase C (PLC)-γ2 (chicken (endogenous in DT40)). Description: co-IP.

B1: phosphorylated B cell linker protein (BLNK), from BCR-stimulated DT40 cells (natural protein)
chain: MDKLNKLAVPAGEKFRKLQKMVHDIKKNESGIINKFKKFQNEQVALICKTGKDTWDRLKKKPPPSLPRRDYASEHADNEEEQWSDDFDSDYENPDGHSDSEMYVVPSEENPDDSYEPPPSEQEKKKIPSSFPISRGEYADNRTSHHQLPPINKPLPSTPSSALPRPKKPSLPSPAAKPKLPLKPRECSDDEDNYIVPVDNDDDNYIEPTESSTPPPAKPPVNRFMKPPAKSALPTPPKPSLASDMQEVYEVPEEEEELSPPPVTRFTKPLPATRAQNAEHSHMHSMTRESPKLDASRNILPLPRNRLHPKTDHEANNNDENHSFSNTQESKFPPGAAPSPLPRALKKTSNAVNPAKPCLPSRDTFTVNEDKPTAADRRRGSSHEFPLPPLPSGTPKSSLQKPLVLPKVPEAPSRALGTSPHSSISSISSTADQDAGVHSKAWYAATCDRKTAEDALYRSNKDGSFLIRKSSGQDSRQPYTLVVFYNRRVYNIPIRFIESTRQYALGREKCGEERFDSVAEIVENHQHTSLVLIDSQNNTKDSTKLKYIVRVS
modifications: phosphotyrosine (sites not defined in the paper)
The molecule B1 yielded a fold increase of the association in Cbl-deficient against wild-type DT40 cells of 3 fold.
